Assay results published in US20160030510.

System: T1, MKI-EGFP fusion protein
T1 sequence: FPLKRHDKVDDLSK

Substance | phosphorylation of endogenous tau at the 12E8 sites in rat hippocampal neurons, Western blot | phosphorylation of transfected HA-tagged human tau at the 12E8 sites in rat hippocampal neurons, immunostaining | phosphorylation of acetyl-CoA carboxylase (ACC) by AMPK in rat hippocampal neurons, pACC (Ser79) antibody
MARK4 (PAR-1/MARK kinases) acting on tau in rat hippocampal neurons | expression of an MKI-GFP fusion protein in rat hippocampal neurons effectively attenuated MARK4-mediated phosphorylation of both endogenous tau (FIG. 3A) and transfected human tau at the 12E8 sites (FIG. 3B) | expression of an MKI-GFP fusion protein in rat hippocampal neurons effectively attenuated MARK4-mediated phosphorylation of both endogenous tau (FIG. 3A) and transfected human tau at the 12E8 sites (FIG. 3B) | 
AMP-activated kinase (AMPK) |  |  | MKI-EGFP did not affect the phosphorylation of acetyl-CoA carboxylase (ACC) by AMP-activated kinase (AMPK)
